In patent US20090081211A1 (Genentech, published 2009):

Molecular target: T1, human complement C3 (human, UniProt P01024 23-1663)
T1 construct: also called native C3; pro-molecule C3
Assay: ELISA on purified C3b or C3 (FIG. 8)
Method: In another experiment, purified C3b or C3 were captured in microtiter plates using a polyclonal C3 antibody. Binding of S77 (A) or a polyclonal anti C3 antibody (B) to captured C3b or C3 was determined using a secondary HRPO-conjugated antibody. Color was developed with TMB (KPL), stopped in 2N H₂SO₄ and absorbance read at 450 nm.
C3b ELISA for testing specificity of anti C3b antibody S77. Twenty-five μL of capture antibody (YW144.2.45.S77 Affinity Matured xC3/C3b (Genentech) 2 μg/ml) diluted in PBS was added to wells of a microtitre plate and incubated overnight at 4° C. The plate was washed 3× with wash buffer (PBS/0.05% Tween 20 (20× stock; Media Prep; Cat. A3355)). Fifty μL of block buffer was added to the wells and the plate incubated for 1-3 hours with gentle agitation (room temperature) and washed 3× with wash buffer. […] OD reading of plate was taken (450/630 nm). […]

T1 sequence (P01024 other isoform, or with tags, fused parts or gaps limits assumed): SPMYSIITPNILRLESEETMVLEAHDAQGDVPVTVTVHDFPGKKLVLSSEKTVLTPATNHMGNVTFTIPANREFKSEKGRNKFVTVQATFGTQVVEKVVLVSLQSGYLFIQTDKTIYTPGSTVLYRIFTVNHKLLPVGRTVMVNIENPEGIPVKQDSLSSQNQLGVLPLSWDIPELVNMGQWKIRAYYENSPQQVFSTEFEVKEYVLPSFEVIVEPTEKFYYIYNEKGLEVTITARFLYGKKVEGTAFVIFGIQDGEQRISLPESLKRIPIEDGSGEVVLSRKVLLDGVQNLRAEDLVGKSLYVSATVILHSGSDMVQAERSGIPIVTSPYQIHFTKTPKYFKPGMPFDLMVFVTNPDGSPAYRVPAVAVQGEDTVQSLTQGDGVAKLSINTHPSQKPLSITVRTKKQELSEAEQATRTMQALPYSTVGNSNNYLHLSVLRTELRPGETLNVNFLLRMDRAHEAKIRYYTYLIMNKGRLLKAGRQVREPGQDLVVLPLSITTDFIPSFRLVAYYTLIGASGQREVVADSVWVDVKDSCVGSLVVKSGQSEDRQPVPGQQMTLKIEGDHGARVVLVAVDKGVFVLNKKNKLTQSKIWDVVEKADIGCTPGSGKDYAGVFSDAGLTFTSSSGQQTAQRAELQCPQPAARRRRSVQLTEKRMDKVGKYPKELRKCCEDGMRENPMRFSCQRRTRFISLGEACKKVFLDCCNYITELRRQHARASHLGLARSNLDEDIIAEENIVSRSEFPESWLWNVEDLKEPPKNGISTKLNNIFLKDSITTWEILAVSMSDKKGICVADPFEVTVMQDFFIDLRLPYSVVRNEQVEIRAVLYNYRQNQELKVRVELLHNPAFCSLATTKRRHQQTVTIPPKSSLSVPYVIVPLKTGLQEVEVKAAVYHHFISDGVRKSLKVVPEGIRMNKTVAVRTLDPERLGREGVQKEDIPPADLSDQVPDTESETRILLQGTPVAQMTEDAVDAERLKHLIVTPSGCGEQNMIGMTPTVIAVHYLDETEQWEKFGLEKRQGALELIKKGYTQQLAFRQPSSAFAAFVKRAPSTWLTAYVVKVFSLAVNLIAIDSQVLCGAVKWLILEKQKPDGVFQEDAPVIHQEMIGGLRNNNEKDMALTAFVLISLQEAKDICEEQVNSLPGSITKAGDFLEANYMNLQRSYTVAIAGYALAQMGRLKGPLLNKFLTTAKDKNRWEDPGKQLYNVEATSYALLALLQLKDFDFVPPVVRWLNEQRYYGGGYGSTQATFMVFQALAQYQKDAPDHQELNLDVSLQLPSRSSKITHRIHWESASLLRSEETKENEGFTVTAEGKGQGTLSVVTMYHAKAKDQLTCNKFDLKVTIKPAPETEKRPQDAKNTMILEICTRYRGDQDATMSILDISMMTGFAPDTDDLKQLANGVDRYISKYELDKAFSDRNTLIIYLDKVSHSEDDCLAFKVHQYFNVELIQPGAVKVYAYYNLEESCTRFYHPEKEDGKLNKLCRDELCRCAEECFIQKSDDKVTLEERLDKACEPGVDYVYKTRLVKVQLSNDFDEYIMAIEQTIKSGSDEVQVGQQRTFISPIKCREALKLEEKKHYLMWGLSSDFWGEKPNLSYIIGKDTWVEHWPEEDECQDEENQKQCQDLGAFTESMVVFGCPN

B1: antibody S77 (YW144.2.43.S77), format in the assay not stated (antibody, V domains shown)
VH: EVQLVESGGGLVQPGGSLRLSCAASGFSFTSSSVSWVRQAPGKGLEWVGLIYPYNGFNYYADSVKGRFTISADTSKNTAYLQMNSLRAEDTAVYYCARNALYGSGGYYAMDYWGQGTLVTVSS
VL: DIQMTQSPSSLSASVGDRVTITCRASQDVSTAVAWYQQKPGKAPKLLIYSASFLYSGVPSRFSGSGSGTDFTLTISSLQPEDFATYYCQQSYATLPTFEQGTKVEIK
notes: also called anti C3b antibody S77
B1: no binding.
